These results are taken from patent US20100074892A1 (US Dept. of Health and Human Services, published 2010).

The assay addresses recombinant anthrax protective antigen (PA) (Bacillus anthracis, UniProt P13423 30-764). Description: SPR (Biacore 3000), antibody immobilized on CM3, PA in solution. (Surface plasmon resonance follows binding to a sensor surface in real time, without labels.)

recombinant anthrax protective antigen (PA), sequence (P13423 30-764 limits assumed): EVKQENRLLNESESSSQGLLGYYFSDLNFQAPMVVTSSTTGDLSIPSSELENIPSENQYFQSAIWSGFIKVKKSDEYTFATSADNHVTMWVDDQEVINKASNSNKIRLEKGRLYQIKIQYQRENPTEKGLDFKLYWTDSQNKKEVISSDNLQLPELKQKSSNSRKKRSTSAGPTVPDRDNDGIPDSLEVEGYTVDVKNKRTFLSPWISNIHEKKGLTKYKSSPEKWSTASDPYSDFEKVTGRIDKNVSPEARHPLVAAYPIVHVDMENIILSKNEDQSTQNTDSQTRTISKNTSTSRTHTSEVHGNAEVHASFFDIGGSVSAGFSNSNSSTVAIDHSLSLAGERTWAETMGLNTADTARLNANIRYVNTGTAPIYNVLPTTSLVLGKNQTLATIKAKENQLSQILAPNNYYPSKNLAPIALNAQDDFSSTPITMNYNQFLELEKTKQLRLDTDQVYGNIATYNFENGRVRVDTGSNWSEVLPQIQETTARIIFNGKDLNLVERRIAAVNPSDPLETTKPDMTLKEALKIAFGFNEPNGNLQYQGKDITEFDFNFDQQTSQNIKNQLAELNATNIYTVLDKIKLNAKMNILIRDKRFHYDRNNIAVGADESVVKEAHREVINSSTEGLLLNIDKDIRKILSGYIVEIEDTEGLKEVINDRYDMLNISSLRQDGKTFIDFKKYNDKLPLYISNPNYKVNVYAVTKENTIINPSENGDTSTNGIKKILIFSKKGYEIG

B1: anti-PA W1 full-length IgG1 (antibody, V domains shown)
VH: EVQLLETGGGLVQPGGSLRLSCAASGFTLRSYHMSWVRRAPGKGLEWVSVIYDGGSTSYADSVKGRFTISRDNSKNTLYLQMTSLRAEDTAVYYCARSGRPLQNYYYMDVWGKGTTVTVSS
VL: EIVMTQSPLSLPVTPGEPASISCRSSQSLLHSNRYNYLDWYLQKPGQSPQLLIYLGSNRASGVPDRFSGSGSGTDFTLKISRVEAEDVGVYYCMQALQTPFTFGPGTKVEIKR
Broadly, the Kd is the equilibrium constant for the complex coming apart. As usually defined, the koff is a measure of how fast the partners let go of each other. What is called kon is the rate constant with which the complex forms. As to B1, the Kd was found to be 0.0397 nM, the off-rate constant (koff) is 1.15e-05 s⁻¹ and the kon was 290000 M⁻¹ s⁻¹.
